Target: biotinylated AP-neuroligin-1 on rat hippocampal neurons (mouse) (UniProt Q99K10)
Assay: cell-based or functional assay

Sequence of monovalent streptavidin A1D3 conjugated to Alexa Fluor 568 (designed binder) (chain): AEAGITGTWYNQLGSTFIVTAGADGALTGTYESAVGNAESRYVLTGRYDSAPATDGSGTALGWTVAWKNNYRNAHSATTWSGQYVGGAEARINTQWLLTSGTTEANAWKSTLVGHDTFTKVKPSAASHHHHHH
Sequence of monovalent streptavidin A1D3 conjugated to Alexa Fluor 568 (designed binder) (chain): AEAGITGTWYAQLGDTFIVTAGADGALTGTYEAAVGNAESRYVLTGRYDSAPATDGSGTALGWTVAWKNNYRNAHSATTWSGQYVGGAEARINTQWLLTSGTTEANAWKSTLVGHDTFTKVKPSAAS

Substance	clusters/µm of labeled AP-neuroligin-1 after a two hour incubation [clusters/µm]
Alexa Fluor 568-conjugated wild-type streptavidin (Molecular Probes) (from UniProt P22629 37-163)	0.266
monovalent streptavidin A1D3 conjugated to Alexa Fluor 568 (designed binder)	0.087
